The domain aggregation screens of Martell et al. (2025)

Experiment: soluble fraction after stress (log2 fold change); higher = more stays soluble; pooled small domains, quantitative proteomics
Conditions: stress: 50 degC
In short: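 Pooled custom libraries of small protein domains were measured in a high-throughput format, with quantitative proteomics as the read-out. Each library was stressed at 50°C. Aggregation propensity is given as the base-two logarithm of the fold change in how much of each protein stays soluble after the stress. Higher values mean a larger share of the protein remains in solution.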
In the case of “HMSSLKKISIDELSPGMYVHSIVEQKGSVKIKSQGKVLKQAVVDALRKRGVKTLLIDLSKQFNPETGEP”, the “soluble fraction (log2)” value is reported as -0.0124. With “HMSSLTPRETEVLSRMAQGDANTSIAERLVITEKAVQKHINAIFAKLGLAEEPTSARRVLAVLAFLR” the “soluble fraction (log2)” value was -0.512. For “HMSSLTQREYEIAELVADGLSNKAIAAELSISHTTAARHVANIMNKLGFNSRSQIAAWVADRAQG”, the “soluble fraction (log2)” value was 0.11. In the case of “HMSSNLSLHKEGNKIVILGLEGKSVIEVYDLMGRLLSSQTNYNPKQEITLLQPVIIRVTDTQQTKSFKV”, the “soluble fraction (log2)” value is reported as -0.83. In the case of “HMSSNLTVFTRNNAIIVNSDVVRKLNVFAVDGRLVRSVDLSVGENVINNISRGMYLIDKQKVVV”, the “soluble fraction (log2)” value is reported as -0.353. For “HMSSPDMSLLYSELDVKDSGQIVTILEQRNIPYEVRNNGSQIYIPSNNVQRIRLSLAQEGLPSG”, the “soluble fraction (log2)” value was -0.0716. In the case of “HMSSPTAKATGSSVNIRKSASTGAAVLKRVEKGTVLEAVSISDGWVKVKYSGVTGYVSADYVKVSGL”, the “soluble fraction (log2)” value is reported as -0.354. With “HMSSQGQNTKTGTVTASALYVRSGAGTNYSQIGYLLKNTKVEIVGQTGSWYKIKFGSGTGYVSSKYIK” the “soluble fraction (log2)” value was -0.652. In the case of “HMSSQLETTFATLIGKRVSIRLHDPEGGFRDILGHLESPYSLRNRHGNLIEFAHDQIFLWREVI”, the “soluble fraction (log2)” value is reported as -0.951. For “HMSSRNLIIFYDSPQAENALLATAERYGAILLHHYRNLHGIAVAIPADKDMAQAVTYFSRQPGVRQV”, the “soluble fraction (log2)” value was -0.803. With “HMSSSKVAISQFEELVDQGQVREVVIEGSTATGTTAAGRRFAAEIPPGGMELFLSKLDDAGTTYEYSPP” the “soluble fraction (log2)” value was at least 0.62. With “HMSSSYTEMQLDKLKKLLEKETLLSSEKSELKSLIHDFDKIPEVVSPLIVGEYLRLKNKYIAVINSLE” the “soluble fraction (log2)” value was -0.214. For “HMSSSYTEMQLERFKELLNKETLLSSEKNELKNLISDFDKISEIVSPLVVGAYLQLKNEHIETINSLG”, the “soluble fraction (log2)” value was -0.192. For “HMSSTAIQAMIRRLIDGEDPRKPLSDARLAETLKASGVPVARRTVAKYRESMSIPSSQDRLRI”, the “soluble fraction (log2)” value was -0.156. In the case of “HMSSTSTKTQNIVHIVKSGETLSAIASKYGVSVDNIKKWNNLSSDKLSIGQKLKINPTTQTSS”, the “soluble fraction (log2)” value is reported as 0.245. With “HMSSVEEILQTLGGRIRTQRLAQGISQQVLADRAGLSLGAVRQLEGSGQSGLDTLVRVLFVLGIVDEL” the “soluble fraction (log2)” value was -2.21. In the case of “HMSSVHTMEVKSTTQIKVLDENKNLSSYYSMKNPVSFNYRLFFLNQDELKKLQEDLKTNNDIQSIDIKYA”, the “soluble fraction (log2)” value is reported as -0.753. In the case of “HMSTALTPLTTREREVLALMAEGLTNSGIAARLVLTDRTVETHVSRILHKLGLGETTTNEHRRVLAVLRYL”, the “soluble fraction (log2)” value is reported as -1.5. With “HMSTASPEELRQTPERRRLIEYLREHGGHGRTSEIAAALGIDDSTASRLLRRLADNGLIVRTQYGEYTLLQ” the “soluble fraction (log2)” value was 0.0183. In the case of “HMSTEAVVMSSSVSVKSSPDKASTDLFVLHEGTKVRTVSELGDWREIVIADGKKGWVEARTIET”, the “soluble fraction (log2)” value is reported as at least 0.62. In the case of “HMSTEPLALVGKTGIAATVLRPSGRIEVDDKYYDAVSLGAFIEKGEMVNIVKYENLQLYVAKL”, the “soluble fraction (log2)” value is reported as -0.0644. In the case of “HMSTFAQNLRALMEKRGVSQNELARSAGLTQSAINKILTGKTKQPGIDTTEAIARVLNVSVAQLIYT”, the “soluble fraction (log2)” value is reported as -0.303. In the case of “HMSTFTPYLVKVTTSVLNIRKGAGTNYGTNGSIRDMGTYTIVAEADGQGASKWGKLKSGAGWISLDYTKK”, the “soluble fraction (log2)” value is reported as -1.94. With “HMSTILERLIMLQEQSGMNQKQLQKELGLSNSAFSDWKKGKGRPSVEALVRFSEFFGVSMDWLAFG” the “soluble fraction (log2)” value was -2.09. With “HMSTKRQKELLEYVDRFITEHGYGPSYREIMNAIGYKSVSTVAIHIDGLIAKGYLRKRDNSARSLEVV” the “soluble fraction (log2)” value was -0.716. For “HMSTKYSSNIISLVKGLMEEDQYKDLMGPPLKKEIIKKVESITDTFPYKFDKDDKEFIVKKVLISLRK”, the “soluble fraction (log2)” value was -1.29. For “HMSTLKSALDEIPGIGAARKRALLNHFGSTRVISSVGVKDLEQVEGVSKKIALLIYGYFHDK”, the “soluble fraction (log2)” value was -2.06. In the case of “HMSTLSIHIPDKFAGQRLDQALAELYSQFSRSRLQQWLNDGELLVDGKSVKANKKVLGGEFIQILK”, the “soluble fraction (log2)” value is reported as -0.861. For “HMSTPENLGGRNTAKARISWLENGVKQELESDFPAAEVVKLSSRFGGEVPELTVIRPSLEDIYLKMIG”, the “soluble fraction (log2)” value was 0.0409. With “HMSTPLVATLRKRIIDGHYPPGERLAEIPVAEAFGVSRTPVRLAFRTLEQEGLLEKAGKRGYAVRA” the “soluble fraction (log2)” value was 0.0325. For “HMSTQVPDVKERSQEEARSILESAGFKVTPAVKTEDSADIAKDMVTKTDPAAGQSVPKGTTITIYVSS”, the “soluble fraction (log2)” value was 0.149. For “HMSTRLIGEIGVVTKDLGAGLKENGSIQIGREEWPAETKDMEHIPMGTRVKVIHIEGTRLVVEA”, the “soluble fraction (log2)” value was -0.629. With “HMSTSRAEIIAFLKSNPSSEYKHELETKLDEMDWAEAVKGNSEESFLAYKQRQPNGTHNGEADEKLKVLLV” the “soluble fraction (log2)” value was 0.191. With “HMSTVISPLPGNIIKVLVPEGKSVKRGDTILTIESMKMENSIKAAYDGVVKKIYVQQAQIVMQGDPLFDL” the “soluble fraction (log2)” value was -1.24. For “HMSVALSENIKTRRKALKMSQEYVAEQLDISRQAVAKWEAGKSEPTTENLVKLAALFEMSVSELVE”, the “soluble fraction (log2)” value was -0.369. With “HMSVDDVALRLEFGPSDAEALAFVHRHGAILSETTDRDTGVVSVHVRLSEADAGRFNQRYGV” the “soluble fraction (log2)” value was -0.183. In the case of “HMSVDDYLKFSGSGTYWNTQDRGKTYLVNGQQRPLRDKEYLPDVMHRHVIDFITKHRDRPFYIYYSM”, the “soluble fraction (log2)” value is reported as 0.0643. With “HMSVDVEGNQRIPTEQVLSELRDVGVSFGKRVSGLNADTIRNQMIINNDEIAWLGVNVRGSRVYVEITERI” the “soluble fraction (log2)” value was -0.018. With “HMSVERIEPPLPLIDTLLALRDALERPLSREENAFLSRRFAGGATRAQIDALAAQFRGAAAAESKV” the “soluble fraction (log2)” value was 0.104. In the case of “HMSVETSDLLPLIEQVLSLNPDKVKEYQNGKKGLLGFFMGQIKQTAGVAIDVGTLKPLLEDALHKDL”, the “soluble fraction (log2)” value is reported as -0.493. With “HMSVEYRKTLSDGNEYQIVKEKNGYVIKKSLNEGLDYLEPMKNRKYYSSYSQAFKRLNLIAKEVNINEGYD” the “soluble fraction (log2)” value was -0.138. With “HMSVFGMEIGKTTEAEAGRMYRLNKEQLNPYSGGYQYSVNPKAIDFSGLEQVTLIFDEKKVLVYVQAV” the “soluble fraction (log2)” value was -0.0837. In the case of “HMSVIETLLSDREREVLTHLVNGYDAKRIAEITGISTLTVRKHIANIYTKLHVNSKAQVISMAHKNKWF”, the “soluble fraction (log2)” value is reported as -0.657. For “HMSVIKERLTEFLTYKGIGQIKFAEAAGLSRGFVNVLGDGISSKSLNKISQAFPELNTLWLTTGEGEML”, the “soluble fraction (log2)” value was -1.91. For “HMSVKTIRKTEFAKRLYSLMLEKNWNQSDLARASGMGRDSVSQYIRANNTPSPQNLKKLAEALGVEPVELY”, the “soluble fraction (log2)” value was -1.3. With “HMSVKYLQIYHAIREKILSNEYAINQQLPDEITLTKEFNSSRMTVKKALDLLVSEGLIFRKRGQGTFVLSR” the “soluble fraction (log2)” value was -2.27. In the case of “HMSVLDEVRKLSFHQRNAVFLFYFEGYSMKEIAQIFHVKEGTVSSWLTRARKQLRKQMEEEVLYDESLP”, the “soluble fraction (log2)” value is reported as -0.526. For “HMSVLLDDLSPREREILQLVVEGHSSTKIAGMLGLASATVDTYRSRLMAKLHIDNLPDLVRFAIRHGLIS”, the “soluble fraction (log2)” value was -1.22. With “HMSVLLKEEGSLQLARHGAAYFIIYSAQEHPNQRRHLKISEEESNRIMEGTPIEEIFLAYSG” the “soluble fraction (log2)” value was -0.291. For “HMSVLQGLIESFKAGDRNLYEVAERLNVTEPFLAEALKDYRARFPKGVQVDNFWISFRPYLTIAEV”, the “soluble fraction (log2)” value was -1.41. For “HMSVNEKVRLFRELNQWSQEEMAERMNMSVAGYAKIERGETNISLHKLKQIASVLQIDLLDLVS”, the “soluble fraction (log2)” value was -0.32. In the case of “HMSVPEAAERAIDVAQMRRALGELSPEQQRVLELAYFGGLTRQEIARATGTPLGTVHTRARLGLQNLRARL”, the “soluble fraction (log2)” value is reported as -0.299. In the case of “HMSVPRVWTDIQGRRVKGDFEGLRGDLVVLRVGGKSYAFPLVRLIASDQAYARSLVAGNPSK”, the “soluble fraction (log2)” value is reported as -0.499. For “HMSVPSLVGKTDSEAQSAIKSAGLKVGTVTYQYSDETEKGYVVSQSPYSGNKVNAGSTVNIVVSKGK”, the “soluble fraction (log2)” value was -0.0367. In the case of “HMSVPSVAAVREQTGLSQVKFASLLGVSVRTLQEWEQGRRAPSGAARTLLMVAAKNPQALLEV”, the “soluble fraction (log2)” value is reported as -0.584. In the case of “HMSVSVEEDADGRVWVYYQDQKMDITDLFDENGVYGFNLEKGDRTVYVEVTKNADGTYSFTQTD”, the “soluble fraction (log2)” value is reported as -0.0127. With “HMSVTIENQINTYFQTRDKISRDELVALIKKDFANWTDNTINIYVSSLQKRGIIHSLSRGMYALGN” the “soluble fraction (log2)” value was -1.98. For “HMSVTYRLLITSSPGQAEVFLDGKRVGITPFSARLAAGWYQVRVSKEGYNLWEQHVQLREDQRLTATLT”, the “soluble fraction (log2)” value was -0.471. With “HMSWAAQVVDKMTNDQLIKSLNEIVNTGKQLGLDITVEQNGDKNFIMTVKDSKGNVQLVTPIG” the “soluble fraction (log2)” value was -0.0133. In the case of “HMSWEQELIEKANEIIDLYPEKRSALGPLLYLAQERDGYISDESIVEISNLVGITEVQVKSVASFYSMYK”, the “soluble fraction (log2)” value is reported as -3.57. In the case of “HMSWNIHEAVEYYKGQDAPQNQFALVELLKEVQEHNGGVLTDIAVEEIAALLNTKVTFLNAVIKRYPSLK”, the “soluble fraction (log2)” value is reported as -0.287. In the case of “HMSYEDLIQAVSGHFGIEIRALLSEDRKKENMIPRQVAMYLLKNKLHYTYERIGNIFSGRNHTAVMYSV”, the “soluble fraction (log2)” value is reported as -0.193. With “HMSYGKVQFVIDAKDAVLSIDGKETDYEKPVKLTYGSHTITVYSSDYDTWKRNLYVNSEKSTVVINLA” the “soluble fraction (log2)” value was -2.72. For “HMSYKDIKEASDTGTYRDEENNIDVKWQKLFNGHNEYFDIEAYRDGERVEINNQQADRYIYLIKQEMD”, the “soluble fraction (log2)” value was 0.025. With “HMSYPEIFQSLTEREQKIADMIAEHLSNKEIAEKMFLSEGTIKQYINQIYSKLQITGDIRNKRKQLIELFH” the “soluble fraction (log2)” value was -1.16. With “HMSYTPGQWVEASMPNATFFRIVPSGNATADKMLAVATPMKVISTSGTYVKVELDSGDVGFVPEIMV” the “soluble fraction (log2)” value was -0.46. With “HMTAEASELRERIRAAMATLPPAQQRVIELAYFEGLTQREIAALLNEPLGTIKTRMRLGMRKLKDVL” the “soluble fraction (log2)” value was -0.747. With “HMTAIKAGDLVKITGTKYYGGQTIPGWVKNQNWYVQEVSGDRAVINKNESGTNAIMSPIRVSDLTPVS” the “soluble fraction (log2)” value was 0.183. In the case of “HMTALPPNVSIDSDERRLLEAIGFDPVDMDVLARDGQFSSVDLFRLLVSLELKGLVENQHGAYQRL”, the “soluble fraction (log2)” value is reported as -1.31.
